{"source": "paper PMC4824898", "about": "(2016)", "binders": {"B1": {"name": "actin-binding domain (ABD) of S. pombe α-actinin (protein)", "chain": "MQANQWQSVQNRTFTKWFNTKLSSRDLPSVFDLRKDLSDGILLIQLLEIIGDENLGRYNRNPRMRVHRLENVNKALEYIKSKGMPLTNIGPADIVDGNLKLILGLIWTLILRFTIADINEEGLTAKEGLLLWCQRKTANYHPEVDVQDFTRSWTNGLAFCALIHQHRPDLLDYNKLDKKNHRANMQLAFDIAQKSIGIPRLIEVEDVCDVDRPDERSIMTYVAEYFHAFSTLDK"}}, "target": "rabbit skeletal muscle actin (Oryctolagus cuniculus (Rabbit), UniProt P68135)", "test": "actin co-sedimentation; polymerised (filamentous) actin", "data": [{"binder": "B1", "values": [{"measurement": "binding result", "value": "no binding"}]}]}
